Measured values taken from publication PMC4999541 (mBio, 2016).
Where two headings read alike, the source gives them in different places. Numbered stars: 1 amine (or outer) side, 2 acyl side, 3 side chain; on linkers, the order of the positions; unused ones are H or OH. Bridge positions count the residues as written; N and C are the ends. Square brackets hold non-standard residues; d marks the D form. Peptide text beside a SMILES is read from it. Adda = CO[C@@H](Cc1ccccc1)[C@@H](C)/C=C(C)/C=C/[C@H](N[*:1])[C@H](C)C(=O)[*:2]; dAsp(3S-Me) = C[C@H](C(=O)[*:3])[C@@H](N[*:1])C(=O)[*:2]; d(γGlu) = O=C(O)[C@@H](CCC(=O)[*:2])N[*:1]; NMeDha = C=C(NC)C(=O)O

What was measured:
[1] = tested on: PP1c; format: biochemical, rabbit
[2] = biological target: PPZ1FL (Candida albicans, UniProt C4YM68); format: biochemical
[3] = biological target: T1, PPZ1cat (Candida albicans, UniProt C4YM68); format: biochemical
[4] = biological target: T1, PPZ1cat; test: Phosphatase inhibition assay, pNPP substrate, PPZ1cat; format: biochemical
[5] = biological target: T2, PP1α (Homo sapiens, UniProt P62136); test: Phosphatase inhibition assay, pNPP substrate, PP1α; format: biochemical; parameters: made in house; host or cells: E. coli
Target sequence in this assay (P62136 whole entry): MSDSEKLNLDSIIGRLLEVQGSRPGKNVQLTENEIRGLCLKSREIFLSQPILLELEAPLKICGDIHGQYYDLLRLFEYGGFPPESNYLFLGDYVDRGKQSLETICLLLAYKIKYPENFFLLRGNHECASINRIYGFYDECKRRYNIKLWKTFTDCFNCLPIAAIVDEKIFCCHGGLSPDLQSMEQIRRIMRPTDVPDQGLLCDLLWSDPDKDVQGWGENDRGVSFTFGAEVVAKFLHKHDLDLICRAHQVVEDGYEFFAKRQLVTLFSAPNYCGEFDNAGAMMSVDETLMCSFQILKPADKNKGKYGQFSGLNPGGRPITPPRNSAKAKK

[6] = biological target: T2, PP1α; conditions: cited from earlier work
Target sequence in this assay (P62136 2-330): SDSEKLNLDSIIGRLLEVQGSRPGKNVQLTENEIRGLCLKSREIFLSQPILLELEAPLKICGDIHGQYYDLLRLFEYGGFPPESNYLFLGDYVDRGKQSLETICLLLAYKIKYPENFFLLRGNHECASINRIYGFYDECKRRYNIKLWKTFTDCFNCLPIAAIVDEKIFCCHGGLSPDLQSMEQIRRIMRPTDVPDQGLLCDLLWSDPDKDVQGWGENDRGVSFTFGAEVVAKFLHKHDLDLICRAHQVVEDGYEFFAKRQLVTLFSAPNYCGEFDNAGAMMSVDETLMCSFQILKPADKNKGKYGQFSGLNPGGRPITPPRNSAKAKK

[7] = biological target: T1, PPZ1cat; test: Pulldown assay with PPZ1cat; format: binding; conditions: for Less binding in pulldown by PPZ1 compared to PP1α: densitometry of the gel
Description: (§1) GADD34_552–567 was purchased. PNUTS394–433 and spinophilin417–602 were purified according to a method described previously ([19], [27]). […]. PP1α7–330 and PPZ1cat were purified by the method described above but retained the His tag. After SEC (20 mM Tris [pH 8.0], 500 mM NaCl, 0.5 mM TCEP, 1 mM MnCl2), 50% (vol/vol) glycerol was added to both PP1α7–330 and PPZ1cat. The final concentrations of the proteins were adjusted to 5 µM. […] of each PP1 regulator was added into 500 µl of PP1α7–330 or PPZ1cat. The mixture was incubated under rocking (4°C) for 60 min to allow for complex formation. A 15-μl bed volume of Ni-NTA resin (GE Healthcare) was added into tubes, and the mixture was incubated at 4°C for 60 min. The beads were pelleted by centrifugation (2000 × g) and washed three times with 500 µl of SEC buffer. Forty microliters of SDS loading buffer was added to the beads, and the samples were boiled at 80°C for 5 min and analyzed on NuPAGE 4 to 12% bis-Tris gels. Gels were stained overnight with SYPRO ruby protein gel stain (Life Technologies) according to the manufacturer’s protocols and scanned using a Typhoon 9410 laser scanner (GE Healthcare) with an excitation wavelength of 457 nm and emission filter of 610 nm following destaining. Densitometry was performed using ImageQuant TL 7.0 software for quantification of the band intensity.

[8] = biological target: T2, PP1α; conditions: cited from earlier work; remark: listed apart in the source
Target sequence in this assay (P62136 2-330): as above

[9] = biological target: T3, PP1α7–330 (Homo sapiens, UniProt P62136); test: Pulldown assay with PP1α; format: binding; conditions: compared to wild-type spinophilin; in words
T3 construct: PP1α7–330 and PPZ1cat were purified by the method described above; made in house; host or cells: E. coli
Description: as §1

[10] = biological target: T4, full-length C. albicans PPZ1 (Candida albicans) (UniProt Q59U06)
T4 sequence: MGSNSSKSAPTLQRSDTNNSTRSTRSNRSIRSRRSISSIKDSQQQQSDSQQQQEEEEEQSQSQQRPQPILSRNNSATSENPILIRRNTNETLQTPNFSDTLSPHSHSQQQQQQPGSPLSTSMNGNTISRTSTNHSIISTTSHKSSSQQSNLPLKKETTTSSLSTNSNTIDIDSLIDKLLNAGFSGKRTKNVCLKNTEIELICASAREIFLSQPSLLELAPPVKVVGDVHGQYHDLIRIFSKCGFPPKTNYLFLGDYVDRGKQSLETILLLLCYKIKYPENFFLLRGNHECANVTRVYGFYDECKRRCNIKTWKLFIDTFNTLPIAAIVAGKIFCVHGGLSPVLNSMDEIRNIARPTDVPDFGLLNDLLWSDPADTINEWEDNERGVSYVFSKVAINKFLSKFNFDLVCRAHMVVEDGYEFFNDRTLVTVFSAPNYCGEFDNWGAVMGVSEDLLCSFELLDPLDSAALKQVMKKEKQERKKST

[11] = biological target: catalytic subunit of rabbit skeletal muscle protein phosphatase 1 (rabbit) (UniProt P62139)
Target sequence in this assay (P62139 whole entry, the tested form may be a part): as the sequence (P62136 whole entry) above

[12] = biological target: human PP1α(7-330), His tag retained (human) (UniProt P62136)
[13] = biological target: C. albicans PPZ1 C-terminal catalytic domain (aa 171 to 484), His6 tag removed (Candida albicans) (UniProt Q59U06)
[14] = biological target: T2, PP1α; conditions: cited from earlier work; remark: listed apart in the source
Target sequence in this assay (P62136 2-330): as the sequence (P62136 2-330) above

[15] = biological target: T4, full-length C. albicans PPZ1 (Candida albicans); remark: listed apart in the source
[16] = biological target: catalytic subunit of rabbit skeletal muscle protein phosphatase 1 (rabbit) (UniProt P62139); remark: listed apart in the source
Target sequence in this assay (P62139 2-330): as the sequence (P62136 2-330) above

[17] = biological target: C. albicans PPZ1 C-terminal catalytic domain (aa 171 to 484), His6 tag removed (Candida albicans) (UniProt Q59U06); remark: listed apart in the source
[18] = biological target: T5, C. albicans PPZ1 C-terminal catalytic domain (aa 171 to 484), His6 tag removed (Candida albicans, UniProt Q59U06 169-482); test: ITC; conditions: both partners purified
T5 construct: also called PPZ1cat; CaPPZ1
T5 sequence: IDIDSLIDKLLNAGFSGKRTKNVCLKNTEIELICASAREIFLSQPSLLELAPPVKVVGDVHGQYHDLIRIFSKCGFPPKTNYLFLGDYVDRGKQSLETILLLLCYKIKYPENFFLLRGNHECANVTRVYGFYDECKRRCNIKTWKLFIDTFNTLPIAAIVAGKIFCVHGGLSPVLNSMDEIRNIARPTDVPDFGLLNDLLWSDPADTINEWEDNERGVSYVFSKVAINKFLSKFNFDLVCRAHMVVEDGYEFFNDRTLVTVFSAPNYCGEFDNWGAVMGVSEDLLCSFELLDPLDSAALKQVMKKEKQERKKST

T1 sequence (C4YM68 entry or part of it): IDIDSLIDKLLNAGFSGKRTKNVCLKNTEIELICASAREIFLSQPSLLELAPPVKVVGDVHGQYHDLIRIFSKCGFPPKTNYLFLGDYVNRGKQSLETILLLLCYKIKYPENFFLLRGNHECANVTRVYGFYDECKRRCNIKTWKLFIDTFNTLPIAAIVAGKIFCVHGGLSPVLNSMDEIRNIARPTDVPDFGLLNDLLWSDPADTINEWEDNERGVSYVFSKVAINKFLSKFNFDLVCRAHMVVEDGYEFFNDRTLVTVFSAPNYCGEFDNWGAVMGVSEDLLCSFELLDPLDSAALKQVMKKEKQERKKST
T3 sequence (P62136 7-330): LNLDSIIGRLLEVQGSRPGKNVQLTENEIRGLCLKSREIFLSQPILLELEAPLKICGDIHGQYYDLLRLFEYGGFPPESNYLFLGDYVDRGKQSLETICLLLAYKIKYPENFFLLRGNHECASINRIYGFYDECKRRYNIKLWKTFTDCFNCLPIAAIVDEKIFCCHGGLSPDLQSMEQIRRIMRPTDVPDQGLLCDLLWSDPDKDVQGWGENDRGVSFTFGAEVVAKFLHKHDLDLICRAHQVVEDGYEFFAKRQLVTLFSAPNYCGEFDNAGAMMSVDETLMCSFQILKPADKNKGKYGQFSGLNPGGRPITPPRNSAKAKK
Chain of PPZ1FL (C4YM68 entry or part of it): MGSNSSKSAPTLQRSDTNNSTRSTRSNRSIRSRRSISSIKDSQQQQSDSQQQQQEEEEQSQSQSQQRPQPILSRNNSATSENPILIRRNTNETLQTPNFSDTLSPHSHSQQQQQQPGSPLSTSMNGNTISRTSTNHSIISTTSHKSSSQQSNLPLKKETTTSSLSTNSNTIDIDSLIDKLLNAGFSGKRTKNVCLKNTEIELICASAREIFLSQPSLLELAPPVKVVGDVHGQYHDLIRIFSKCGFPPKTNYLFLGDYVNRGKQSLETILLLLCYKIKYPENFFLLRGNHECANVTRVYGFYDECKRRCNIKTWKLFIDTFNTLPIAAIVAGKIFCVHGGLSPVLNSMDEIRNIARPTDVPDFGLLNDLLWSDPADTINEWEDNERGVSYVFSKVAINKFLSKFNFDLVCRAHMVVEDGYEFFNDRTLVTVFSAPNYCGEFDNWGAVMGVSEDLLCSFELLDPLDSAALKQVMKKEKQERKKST
Chain of human PP1α(7-330), His tag retained (human) (P62136 7-330): as the sequence (P62136 7-330) above

## C=C1C(=O)N[C@H](C)C(=O)N[C@@H](CC(C)C)C(=O)N[C@@H](C(=O)O)[C@H](C)C(=O)N[C@@H](CCCNC(=N)N)C(=O)N[C@@H](/C=C/C(C)=C/[C@H](C)[C@H](Cc2ccccc2)OC)[C@H](C)C(=O)N[C@@H](C(=O)O)CCC(=O)N1C [MC, microcystin-LR] (R[Adda][d(γGlu)][NMeDha][dA]L[dAsp(3S-Me)]-OH; lactam N-7)
[1]
  IC50: 0.43 nM
[2]; read-out: IC50 of MC
  IC50: 0.96 nM
[3]; read-out: IC50 of MC
  IC50: 0.72 nM
[4]
  IC50: 11.8 nM
[5]
  IC50: 4.4 nM

## GADD34 552-567 (from UniProt O75807)
[6]
  Kd: 62 nM

## GADD34_552–567: purchased peptide, minimal PP1-binding domain of regulator GADD34 with RVxF and ΦΦ motifs (KARKVRFSEKVTVHFL)
[7]; in words
  Binding in pulldown by PPZ1cat compared to PP1α: less effectively

## PNUTS394–433: minimal PP1-binding domain of PP1 regulator PNUTS (RVxF-ΦΦ-Arg) (RKRKTVTWPEEGKLREYFYFELDETERVNVNKIKDFGEAA)
[7]
  Less binding in pulldown by PPZ1 compared to PP1α: ~ 85%

## PNUTS 394-433 (from UniProt Q96QC0)
[8]
  Kd: 9.3 nM

## SpinoR469D: spinophilin417–602 variant with Arg motif mutation R469D
[9]
  Amount of spinophilin variant pulled down by PP1α: reduces the amount of spinophilin pulled down

## SpinoR469E: spinophilin417–602 variant with Arg motif mutation R469E
[9]
  Amount of spinophilin variant pulled down by PP1α: reduces the amount of spinophilin pulled down

## microcystin-LR (peptide)
[10]
  inhibition of phosphatase activity, 32P-labeled MLC20 (pMLC) substrate, IC50: 0.96 nM
[11]
  inhibition of phosphatase activity, 32P-labeled MLC20 (pMLC) substrate, IC50: 0.43 nM
[12]
  inhibition of phosphatase activity, pNPP substrate, IC50: 4.4 nM
[13]
  inhibition of phosphatase activity, 32P-labeled MLC20 (pMLC) substrate, IC50: 0.72 nM
  inhibition of phosphatase activity, pNPP substrate, IC50: 11.8 nM

## spinophilin417–602: minimal PP1-binding domain of PP1 regulator spinophilin
[7]
  Less binding in pulldown by PPZ1 compared to PP1α: ~ 85%

## spinophilin 417-602 (from UniProt O35274)
[14]
  Kd: 8.7 nM

B1: I-2: inhibitor-2, a specific protein inhibitor of PP1; recombinant 6×His-tagged (protein)
chain: AASTASHRPIKGILKNKTSTTSSMVASAEQPRGNVDEELSKKSQKWDEMNILATYHPADKDYGLMKIDEPSTPYHSMMGDDEDACSDTEATEAMAPDILARKLAAAEGLEPKYRIQEQESSGEEDSDLSPEEREKKRQFEMKRKLHYNEGLNIKLARQLISKDLHDDDEDEEMLETADGESMNTEESNQGSTPSDQQQNKLRSS
[2]; PPZ1FL, includes N-terminal IDP domain, read-out: IC50 of I-2
  IC50: 278 nM
[3]; PPZ1cat, recombinant I-2, read-out: IC50 of I-2
  IC50: 7 nM

B2: recombinant 6×His-tagged inhibitor-2 (natural protein)
chain: MAASTASHRPIKGILKNKTSTTSSMVASAEQPRGNVDEELSKKSQKWDEMNILATYHPADKDYGLMKIDEPSTPYHSMMGDDEDACSDTEATEAMAPDILARKLAAAEGLEPKYRIQEQESSGEEDSDLSPEEREKKRQFEMKRKLHYNEGLNIKLARQLISKDLHDDDEDEEMLETADGESMNTEESNQGSTPSDQQQNKLRSS
[15]
  inhibition of phosphatase activity by increasing concentrations of I-2, IC50: 278 nM
[16]
  inhibition of phosphatase activity by increasing concentrations of I-2, IC50: 12 nM
[17]
  inhibition of phosphatase activity by increasing concentrations of I-2, IC50: 7 nM

## KARKVRFSEKVTVHFL (peptide, UniProt O75807 552-567, looked up, also called G34) [GADD34(552-567) peptide]
[18]
  Kd: 1150 ± 90 nM
